In IntAct's records for PubMed 31515488:

B1: Tuftelin-interacting protein 11 (Homo sapiens), Q9UBB9 (parent)
chain: MSLSHLYRDGEGRIDDDDDERENFEITDWDLQNEFNPNRQRHWQTKEEATYGVWAERDSDDERPSFGGKRARDYSAPVNFISAGLKKGAAEEAELEDSDDEEKPVKQDDFPKDFGPRKLKTGGNFKPSQKGFAGGTKSFMDFGSWERHTKGIGQKLLQKMGYVPGRGLGKNAQGIINPIEAKQRKGKGAVGAYGSERTTQSMQDFPVVDSEEEAEEEFQKELSQWRKDPSGSKKKPKYSYKTVEELKAKGRISKKLTAPQKELSQVKVIDMTGREQKVYYSYSQISHKHNVPDDGLPLQSQQLPQSGKEAKAPGFALPELEHNLQLLIDLTEQEIIQNDRQLQYERDMVVNLFHELEKMTEVLDHEERVISNLSKVLEMVEECERRMQPDCSNPLTLDECARIFETLQDKYYEEYRMSDRVDLAVAIVYPLMKEYFKEWDPLKDCTYGTEIISKWKSLLENDQLLSHGGQDLSADAFHRLIWEVWMPFVRNIVTQWQPRNCDPMVDFLDSWVHIIPVWILDNILDQLIFPKLQKEVENWNPLTDTVPIHSWIHPWLPLMQARLEPLYSPIRSKLSSALQKWHPSDSSAKLILQPWKDVFTPGSWEAFMVKNIVPKLGMCLGELVINPHQQHMDAFYWVIDWEGMISVSSLVGLLEKHFFPKWLQVLCSWLSNSPNYEEITKWYLGWKSMFSDQVLAHPSVKDKFNEALDIMNRAVSSNVGAYMQPGARENIAYLTHTERRKDFQYEAMQERREAENMAQRGIGVAASSVPMNFKDLIETKAEEHNIVFMPVIGKRHEGKQLYTFGRIVIYIDRGVVFVQGEKTWVPTSLQSLIDMAK
partner: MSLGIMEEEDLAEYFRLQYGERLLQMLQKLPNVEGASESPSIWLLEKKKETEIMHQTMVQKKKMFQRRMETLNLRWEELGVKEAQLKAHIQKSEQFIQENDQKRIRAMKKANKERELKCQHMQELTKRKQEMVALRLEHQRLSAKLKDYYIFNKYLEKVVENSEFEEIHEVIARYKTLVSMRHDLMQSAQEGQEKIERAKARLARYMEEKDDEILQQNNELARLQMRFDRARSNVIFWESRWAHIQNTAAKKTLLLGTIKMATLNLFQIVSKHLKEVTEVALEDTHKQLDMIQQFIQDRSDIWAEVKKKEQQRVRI
B2: Tyrosine-protein phosphatase non-receptor type 9 (Homo sapiens), P43378 (parent)
chain: MEPATAPRPDMAPELTPEEEQATKQFLEEINKWTVQYNVSPLSWNVAVKFLMARKFDVLRAIELFHSYRETRRKEGIVKLKPHEEPLRSEILSGKFTILNVRDPTGASIALFTARLHHPHKSVQHVVLQALFYLLDRAVDSFETQRNGLVFIYDMCGSNYANFELDLGKKVLNLLKGAFPARLKKVLIVGAPIWFRVPYSIISLLLKDKVRERIQILKTSEVTQHLPRECLPENLGGYVKIDLATWNFQFLPQVNGHPDPFDEIILFSLPPALDWDSVHVPGPHAMTIQELVDYVNARQKQGIYEEYEDIRRENPVGTFHCSMSPGNLEKNRYGDVPCLDQTRVKLTKRSGHTQTDYINASFMDGYKQKNAYIGTQGPLENTYRDFWLMVWEQKVLVIVMTTRFEEGGRRKCGQYWPLEKDSRIRFGFLTVTNLGVENMNHYKKTTLEIHNTEERQKRQVTHFQFLSWPDYGVPSSAASLIDFLRVVRNQQSLAVSNMGARSKGQCPEPPIVVHCSAGIGRTGTFCSLDICLAQLEELGTLNVFQTVSRMRTQRAFSIQTPEQYYFCYKAILEFAEKEGMVSSGQNLLAVESQ
B3: Centrosomal protein of 55 kDa (Homo sapiens), Q53EZ4 (parent)
chain: MSSRSTKDLIKSKWGSKPSNSKSETTLEKLKGEIAHLKTSVDEITSGKGKLTDKERHRLLEKIRVLEAEKEKNAYQLTEKDKEIQRLRDQLKARYSTTTLLEQLEETTREGERREQVLKALSEEKDVLKQQLSAATSRIAELESKTNTLRLSQTVAPNCFNSSINNIHEMEIQLKDALEKNQQWLVYDQQREVYVKGLLAKIFELEKKTETAAHSLPQQTKKPESEGYLQEEKQKCYNDLLASAKKDLEVERQTITQLSFELSEFRRKYEETQKEVHNLNQLLYSQRRADVQHLEDDRHKTEKIQKLREENDIARGKLEEEKKRSEELLSQVQFLYTSLLKQQEEQTRVALLEQQMQACTLDFENEKLDRQHVQHQLHVILKELRKARNQITQLESLKQLHEFAITEPLVTFQGETENREKVAASPKSPTAALNESLVECPKCNIQYPATEHRDLLVHVEYCSK
partner: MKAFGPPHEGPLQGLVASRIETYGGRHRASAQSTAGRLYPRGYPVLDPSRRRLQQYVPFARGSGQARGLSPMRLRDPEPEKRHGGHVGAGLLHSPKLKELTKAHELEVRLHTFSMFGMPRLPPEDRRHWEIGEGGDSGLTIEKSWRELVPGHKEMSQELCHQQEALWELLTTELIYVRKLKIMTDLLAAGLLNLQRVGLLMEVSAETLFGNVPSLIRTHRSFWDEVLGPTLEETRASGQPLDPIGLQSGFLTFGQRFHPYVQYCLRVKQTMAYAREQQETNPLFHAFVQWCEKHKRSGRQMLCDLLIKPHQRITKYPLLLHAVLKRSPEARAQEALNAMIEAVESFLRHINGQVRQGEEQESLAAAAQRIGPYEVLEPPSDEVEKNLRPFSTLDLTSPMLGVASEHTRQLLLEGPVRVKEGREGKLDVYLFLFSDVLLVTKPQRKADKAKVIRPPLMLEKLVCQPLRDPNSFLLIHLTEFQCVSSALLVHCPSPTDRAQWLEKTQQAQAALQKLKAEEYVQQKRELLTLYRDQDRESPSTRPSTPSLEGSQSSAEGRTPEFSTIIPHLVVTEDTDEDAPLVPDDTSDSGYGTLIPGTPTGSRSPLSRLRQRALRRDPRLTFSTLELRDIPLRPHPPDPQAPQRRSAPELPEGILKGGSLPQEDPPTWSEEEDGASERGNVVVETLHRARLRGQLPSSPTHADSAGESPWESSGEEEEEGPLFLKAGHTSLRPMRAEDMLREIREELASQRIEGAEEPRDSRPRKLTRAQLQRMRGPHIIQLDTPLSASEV
B4: DCC-interacting protein 13-beta (Homo sapiens), Q8NEU8 (parent)
chain: MPAVDKLLLEEALQDSPQTRSLLSVFEEDAGTLTDYTNQLLQAMQRVYGAQNEMCLATQQLSKQLLAYEKQNFALGKGDEEVISTLHYFSKVVDELNLLHTELAKQLADTMVLPIIQFREKDLTEVSTLKDLFGLASNEHDLSMAKYSRLPKKKENEKVKTEVGKEVAAARRKQHLSSLQYYCALNALQYRKQMAMMEPMIGFAHGQINFFKKGAEMFSKRMDSFLSSVADMVQSIQVELEAEAEKMRVSQQELLSVDESVYTPDSDVAAPQINRNLIQKAGYLNLRNKTGLVTTTWERLYFFTQGGNLMCQPRGAVAGGLIQDLDNCSVMAVDCEDRRYCFQITTPNGKSGIILQAESRKENEEWICAINNISRQIYLTDNPEAVAIKLNQTALQAVTPITSFGKKQESSCPSQNLKNSEMENENDKIVPKATASLPEAEELIAPGTPIQFDIVLPATEFLDQNRGSRRTNPFGETEDESFPEAEDSLLQQMFIVRFLGSMAVKTDSTTEVIYEAMRQVLAARAIHNIFRMTESHLMVTSQSLRLIDPQTQVSRANFELTSVTQFAAHQENKRLVGFVIRVPESTGEESLSTYIFESNSEGEKICYAINLGKEIIEVQKDPEALAQLMLSIPLTNDGKYVLLNDQPDDDDGNPNEHRGAESEA
partner: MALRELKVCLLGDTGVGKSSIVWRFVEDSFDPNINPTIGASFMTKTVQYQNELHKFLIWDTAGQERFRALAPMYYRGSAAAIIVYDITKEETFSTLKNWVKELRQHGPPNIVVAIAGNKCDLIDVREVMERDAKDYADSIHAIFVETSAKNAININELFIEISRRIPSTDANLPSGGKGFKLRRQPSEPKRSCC
B5: Centrosomal protein of 55 kDa (Homo sapiens), Q53EZ4 (parent)
chain: B3 chain
partner: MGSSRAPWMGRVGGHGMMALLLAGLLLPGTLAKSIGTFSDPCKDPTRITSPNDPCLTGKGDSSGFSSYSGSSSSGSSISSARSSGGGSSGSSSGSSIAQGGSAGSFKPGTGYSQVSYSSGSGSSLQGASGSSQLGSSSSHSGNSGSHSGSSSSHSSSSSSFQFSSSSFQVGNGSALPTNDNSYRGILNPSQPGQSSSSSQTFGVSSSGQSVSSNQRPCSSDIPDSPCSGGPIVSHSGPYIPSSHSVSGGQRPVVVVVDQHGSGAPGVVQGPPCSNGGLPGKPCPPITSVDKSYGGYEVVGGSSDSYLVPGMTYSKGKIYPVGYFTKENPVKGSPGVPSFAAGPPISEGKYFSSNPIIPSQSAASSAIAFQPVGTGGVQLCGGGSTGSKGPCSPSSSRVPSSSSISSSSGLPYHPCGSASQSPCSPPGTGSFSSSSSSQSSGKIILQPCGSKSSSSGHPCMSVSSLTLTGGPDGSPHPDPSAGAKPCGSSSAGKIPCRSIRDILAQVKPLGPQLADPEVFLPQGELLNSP

Variants of: B1
Conditions: with ccd42_human CCDC42, Q96M95

| Variant | effect of a mutation on the interaction |
| --- | --- |
| R8Q | with no effect |
| S688L | with no effect |

Variants of: B2
Conditions: with mal2_human MAL2, Q969L2
mal2_human MAL2, Q969L2, sequence (Q969L2 whole entry): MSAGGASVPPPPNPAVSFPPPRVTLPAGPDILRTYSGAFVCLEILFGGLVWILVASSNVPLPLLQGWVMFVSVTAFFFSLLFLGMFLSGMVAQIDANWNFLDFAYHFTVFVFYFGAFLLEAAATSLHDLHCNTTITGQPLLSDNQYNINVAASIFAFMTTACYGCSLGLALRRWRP

| Variant | effect of a mutation on the interaction |
| --- | --- |
| R72Q | disrupting interaction strength |

Variants of: B2
Conditions: with rtn3_human RTN3, O95197
rtn3_human RTN3, O95197, sequence (O95197 whole entry): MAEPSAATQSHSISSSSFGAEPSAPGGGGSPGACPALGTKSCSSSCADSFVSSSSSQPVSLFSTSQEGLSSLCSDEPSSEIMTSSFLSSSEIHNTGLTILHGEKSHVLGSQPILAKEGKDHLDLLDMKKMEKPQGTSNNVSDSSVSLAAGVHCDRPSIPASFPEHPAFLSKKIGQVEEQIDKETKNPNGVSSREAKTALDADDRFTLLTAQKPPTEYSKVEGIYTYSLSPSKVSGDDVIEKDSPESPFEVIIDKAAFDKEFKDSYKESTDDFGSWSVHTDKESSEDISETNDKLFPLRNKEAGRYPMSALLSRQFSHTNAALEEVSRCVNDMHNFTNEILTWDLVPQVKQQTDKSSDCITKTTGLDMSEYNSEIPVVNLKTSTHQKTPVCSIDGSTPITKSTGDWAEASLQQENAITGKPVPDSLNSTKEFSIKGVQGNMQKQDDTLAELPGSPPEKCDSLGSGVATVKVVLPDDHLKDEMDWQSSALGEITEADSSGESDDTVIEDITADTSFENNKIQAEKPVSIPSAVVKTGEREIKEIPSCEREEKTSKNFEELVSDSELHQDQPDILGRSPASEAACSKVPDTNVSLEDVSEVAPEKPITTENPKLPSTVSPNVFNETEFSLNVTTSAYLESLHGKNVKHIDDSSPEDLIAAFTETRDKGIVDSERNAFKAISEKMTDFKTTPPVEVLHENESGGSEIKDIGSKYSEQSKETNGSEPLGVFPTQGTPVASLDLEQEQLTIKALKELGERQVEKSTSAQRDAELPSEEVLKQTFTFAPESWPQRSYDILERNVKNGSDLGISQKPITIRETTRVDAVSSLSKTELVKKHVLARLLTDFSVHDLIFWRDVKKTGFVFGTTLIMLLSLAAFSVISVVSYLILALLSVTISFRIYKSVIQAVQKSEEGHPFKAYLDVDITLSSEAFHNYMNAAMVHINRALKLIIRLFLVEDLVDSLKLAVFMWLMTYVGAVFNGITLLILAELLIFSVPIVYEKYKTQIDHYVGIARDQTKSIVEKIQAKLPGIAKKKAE

| Variant | effect of a mutation on the interaction |
| --- | --- |
| R72Q | with no effect |

Variants of: B2
Conditions: with atrap_human AGTRAP

| Variant | effect of a mutation on the interaction |
| --- | --- |
| R72Q | with no effect |

Variants of: B3
Conditions: with pkhg6_human PLEKHG6, Q3KR16

| Variant | effect of a mutation on the interaction |
| --- | --- |
| L59F | with no effect |

Variants of: B4
Conditions: with rb22a_human RAB22A

| Variant | effect of a mutation on the interaction |
| --- | --- |
| K70R | with no effect |

Variants of: B5
Conditions: with cdsn_human CDSN

| Variant | effect of a mutation on the interaction |
| --- | --- |
| H57Q | with no effect |
| C236R | with no effect |
| R348K | with no effect |
| A244P | with no effect |
